Assay results from PMC1885668.
Substitutions are numbered along the chain they refer to.

What was measured:
TREX2BD = molecular target: T1, TREX2BD (human, UniProt Q9BQ50 1-236, R163A;R165A;R167A); assay: SPR
T1 sequence: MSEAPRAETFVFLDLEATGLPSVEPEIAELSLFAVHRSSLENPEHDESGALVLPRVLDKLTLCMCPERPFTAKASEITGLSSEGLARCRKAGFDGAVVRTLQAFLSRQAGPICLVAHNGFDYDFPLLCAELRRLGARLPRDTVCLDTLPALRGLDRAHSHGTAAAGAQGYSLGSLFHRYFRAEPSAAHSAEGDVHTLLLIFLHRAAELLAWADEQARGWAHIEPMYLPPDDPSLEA

TREX2DD = molecular target: T2, TREX2DD (human, UniProt Q9BQ50 1-236, E29A;K59A;D94A;R107A;E191A); assay: SPR
T2 sequence: T1 sequence with E29A, K59A, D94A, R107A, A163R, A165R, A167R, E191A

B1: Biotin-mTX1-322 (24-mer) (ssDNA)
DNA: GTATGAGCTGCAGTTCCTCAGCAT
B1: no binding (TREX2BD); no binding (TREX2DD).
